# In patent US20260234242A1 (HAINAN SIMCERE ZAIMING PHARMACEUTICAL, published 2026):
# T1: human CDH6 on tumor cells (OVCAR3 cells, PA-1 cells) (human, UniProt P55285 54-790)
# T1 sequence: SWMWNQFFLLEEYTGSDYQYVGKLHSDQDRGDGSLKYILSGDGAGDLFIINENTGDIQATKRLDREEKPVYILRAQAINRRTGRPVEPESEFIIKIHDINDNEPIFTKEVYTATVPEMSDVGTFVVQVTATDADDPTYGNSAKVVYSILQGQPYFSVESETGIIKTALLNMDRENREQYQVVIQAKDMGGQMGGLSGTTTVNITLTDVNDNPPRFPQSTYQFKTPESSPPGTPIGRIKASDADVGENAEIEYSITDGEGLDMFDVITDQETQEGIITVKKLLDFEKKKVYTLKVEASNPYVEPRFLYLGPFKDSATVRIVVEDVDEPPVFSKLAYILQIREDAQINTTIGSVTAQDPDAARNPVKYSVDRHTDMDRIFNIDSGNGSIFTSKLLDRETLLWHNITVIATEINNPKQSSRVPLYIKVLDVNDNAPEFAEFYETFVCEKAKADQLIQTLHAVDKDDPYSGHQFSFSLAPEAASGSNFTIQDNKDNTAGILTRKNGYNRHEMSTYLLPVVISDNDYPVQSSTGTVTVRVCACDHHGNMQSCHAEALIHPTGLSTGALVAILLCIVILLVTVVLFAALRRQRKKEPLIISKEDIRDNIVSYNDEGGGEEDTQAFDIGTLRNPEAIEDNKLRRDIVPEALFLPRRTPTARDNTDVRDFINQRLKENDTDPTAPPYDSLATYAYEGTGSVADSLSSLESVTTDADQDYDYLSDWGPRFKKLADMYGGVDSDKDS
# T2: his-tagged human CDH6 extracellular region protein (hCDH6 ECD-his) (human, UniProt P55285 19-615)
# T2 construct: also called Human CDH6-his; hCDH6-his; not shown: his tag
# T2 sequence: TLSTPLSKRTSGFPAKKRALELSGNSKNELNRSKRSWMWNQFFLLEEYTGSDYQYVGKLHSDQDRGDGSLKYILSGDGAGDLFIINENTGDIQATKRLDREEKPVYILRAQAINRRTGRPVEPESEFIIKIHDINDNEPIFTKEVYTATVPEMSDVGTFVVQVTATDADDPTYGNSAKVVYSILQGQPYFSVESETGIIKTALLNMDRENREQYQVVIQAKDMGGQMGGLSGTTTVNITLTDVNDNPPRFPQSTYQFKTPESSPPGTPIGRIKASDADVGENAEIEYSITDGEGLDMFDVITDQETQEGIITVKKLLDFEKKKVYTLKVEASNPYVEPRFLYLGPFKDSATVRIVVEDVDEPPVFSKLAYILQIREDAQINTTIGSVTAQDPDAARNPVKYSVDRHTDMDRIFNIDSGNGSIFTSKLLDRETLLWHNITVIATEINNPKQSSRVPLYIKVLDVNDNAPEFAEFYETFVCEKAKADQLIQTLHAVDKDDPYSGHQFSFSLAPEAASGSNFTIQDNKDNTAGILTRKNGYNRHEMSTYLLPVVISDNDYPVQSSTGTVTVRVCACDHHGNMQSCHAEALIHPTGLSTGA
# B1: CHI-CDH6-11 (antibody, human IgG1, kappa, V domains shown)
# VH: QIQLQQSGPELVKPGASVRISCKASGYTFTDYYITWVKLRPGQGLEWIGWIYPGSVNIKYNEKFKGKATLTVDTSSSTAYMQLNSLTSEDSAVYFCARGGYSWFPYWGQGTLVTVSA
# VL: NIVMTQSPKSMSMSVGERVTLSCKASENVHTYVSWYQQKPEQSPKLLFYGASTRNTGVPDRFTGSGSATDFTLTISSVQAEDLADYYCGQSYSYPYTFGSGTKLEIKR
# notes: also called chimeric antibody of murine CDH6-11
# B2: CHI-CDH6-9 (antibody, human IgG1, kappa, V domains shown)
# VH: QVQLQQPGAELVKPGASVKLSCKASGYTFTGYWMHWVRQRPGQGLEWIGEINPNNGGTNCNEQFKNKATLTVDKSSSTAYMQLSSLTSEDSAVFYCTISFGNYLFFDVWGAGTTVTVSS
# VL: DIQMTQSPASLAASVGETITITCQASENIYFSLAWYQQKQGKSPQLLIYNANTLEDGVPSRFVGSGSGTQYSMKINSIQPEDTATYFCDQTYDFPWTFGGGTKLEIKR
# notes: also called chimeric antibody of murine CDH6-9
# B3: CHI-CDH6-13 (antibody, human IgG1, kappa, V domains shown)
# VH: DVQLQESGPGLVKPSQSLSLTCSVTGYSITKDSYWNWIRQFPGSKLEWMGFISYDGSRHYNPSLKNRISITRDTSKNQFFLQLNSVTTEDTATYYCARRDYADYWGQGTTLTVSS
# VL: QIVLTQSPALMSAFPGEKVTMTCSATSSVSYIYWYQQKPRSSPKPWIYLTSNLASGVPARFSGSGSGTSYSLTINSLEAEDAATYYCQQWSSIPYTFGGGTKLEIKR
# notes: also called chimeric antibody of murine CDH6-13
# B4: NOV0712 (antibody, human IgG1, kappa, V domains shown)
# VH: QVQLLESGGGLVQPGGSLRLSCAASGFTFSSHGMHWVRQAPGKGLEWVSVISGSGSNTGYADSVKGRFTISRDNSKNTLYLQMNSLRAEDTAVYYCARQWGSYAFDSWGQGTLVTVSS
# VL: DIQMTQSPSSLSASVGDRVTITCRASQSISSYLNWYQQKPGKAPKLLIYAVSTLQSGVPSRFSGSGSGTDFTLTISSLQPEDFATYYCQQSGTFPPTTFGQGTKVEIKR
# notes: Positive control, variable regions from WO2018212136A1; also called positive control anti-human CDH6 antibody
# B5: CHI-CDH6-10 (antibody, human IgG1, kappa, V domains shown)
# VH: QVQLQQPGAELVKPGTSVKMSCKASGYTFTSDWIAWVKQRPGQGLEWIGDIYPGSGRTHNNEKFNFKATLTVDTSSNTAYMQLSSLTSEDSAVYFCARPMLGRFDYWGQGTTLTVSS
# VL: DIVLTQSPASLAVSLGQRATISCRASESVSIHGTHLMHWYQQKPGQPPKLLIYAASNLESGVPARFSGSGSETDFTLNIHPVEEEDAATYFCQQSFEDPFTFGSGTKLEIKR
# notes: also called chimeric antibody of murine CDH6-10
# Target: T1, human CDH6 on tumor cells (OVCAR3 …)
# Assay: FACS, PA-1 cells
# Protocol: (§1) OVCAR3 cells with high expression of CDH6 and PA-1 cells with moderate expression of CDH6 were used to detect the binding activity of the antibodies to the cells. […] The cells were washed once with PBS, counted, resuspended to 2×10⁶ cells/mL in an FACS buffer (PBS+2% FBS), and then added to a 96-well plate at 50 μL/well. The chimeric antibodies were diluted with FACS buffer (PBS+2% FBS) and added to the 96-well plate at 50 μL/well, and the plate was incubated at 4° C. for 1 h. […] The dilution was added to the 96-well plate at 50 μL/well, and the plate was incubated at 4° C. for 1 h. After the plates were centrifuged and washed 2 times with PBS, the cells were resuspended in an FACS buffer. The mean fluorescence intensity (MFI) was measured using FACS Canton II (BD). Analysis was performed by the GraphPad Prism software, data were fitted, and EC50 values were calculated. The chimeric antibodies tested had strong binding to both OVCAR3 cells and PA-1 cells.
EC50,Max MFI,Binder
1.78 nM,4690 MFI,B1
0.16 nM,4400 MFI,B2
1.97 nM,4440 MFI,B3
1.46 nM,3600 MFI,B4
0.08 nM,4070 MFI,B5

# Target: T1, human CDH6 on tumor cells (OVCAR3 …)
# Assay: FACS, OVCAR3 cells
# Protocol: as §1
EC50,Max MFI,Binder
2.14 nM,14500 MFI,B1
0.51 nM,18200 MFI,B2
2.08 nM,17600 MFI,B3
1.92 nM,11500 MFI,B4
0.2 nM,13900 MFI,B5

# Target: T2, his-tagged human CDH6 extracellular …
# Assay: SPR Biacore 8K, antibody captured on Protein A
# Protocol: The affinity of the antibody for the antigen was determined by a multi-cycle kinetic method using a BIAcore 8K instrument. In each cycle, the antibody to be tested was captured using a Protein A chip (purchased from GE, Cat. No. 29-1275-56), and then the antigen human CDH6 protein (hCDH6-his, conventionally synthesized) was injected. The association and dissociation processes of the antibody with the antigen protein were recorded, and finally, the chip was regenerated using Glycine pH 1.5, wherein the mobile phase was HBS-EP+ (10 mM HEPES, 150 mM NaCl, 3 mM EDTA, 0.05% surfactant P20, and 1 mM Ca), the flow rate was 30 μL/min, the association time was 240 s, the dissociation time was 300 s, the regeneration time was 30 s, the detection temperature was 25° C., and the antigen concentration was 31.25-1000 nM. The data were analyzed using Biacore 8K analysis software (version No. 2.0) based on the 1:1 binding model to fit the antibody-antigen binding kinetic parameters, including the association rate constant ka, the dissociation rate constant kd, and the equilibrium dissociation constant KD. The affinity values of the control antibody DS-H01L02 were undetectable. Antibodies not shown in the table had undetectable affinity values.
Kd,koff,kon,Binder
5.72 nM,0.000201 s⁻¹,35200 M⁻¹ s⁻¹,B1
138 nM,0.00159 s⁻¹,11600 M⁻¹ s⁻¹,B2
78.1 nM,0.00184 s⁻¹,23600 M⁻¹ s⁻¹,B3
53.5 nM,0.00267 s⁻¹,49900 M⁻¹ s⁻¹,B4
20.3 nM,0.00364 s⁻¹,179000 M⁻¹ s⁻¹,B5
